Results published in patent US20210139548A1 (published 2021).
*1 amine or outer side, *2 acyl side, *3 side chain or, on linkers, in order; H or OH if unused. Side-chain parts run from the residue outwards. The star is where a group is joined. C18 diacid = O=C(O)CCCCCCCCCCCCCCCCC(=O)*; γGlu = O=C(O)[C@H](CCC(=O)[*:2])N[*:1]; Isovaleryl = CC(C)CC(=O)*; AEEA = NCCOCCOCC(=O)O

What was measured:
[1] = target: T1, human neuropeptide Y2 receptor (human, UniProt P49146 1-381); experiment: radioligand competition (125I-PYY(1-36)), hNPY2R membranes
T1 construct: whole, on cells; also called hNPY2 receptor; hNPY2-R
T1 sequence (looked up): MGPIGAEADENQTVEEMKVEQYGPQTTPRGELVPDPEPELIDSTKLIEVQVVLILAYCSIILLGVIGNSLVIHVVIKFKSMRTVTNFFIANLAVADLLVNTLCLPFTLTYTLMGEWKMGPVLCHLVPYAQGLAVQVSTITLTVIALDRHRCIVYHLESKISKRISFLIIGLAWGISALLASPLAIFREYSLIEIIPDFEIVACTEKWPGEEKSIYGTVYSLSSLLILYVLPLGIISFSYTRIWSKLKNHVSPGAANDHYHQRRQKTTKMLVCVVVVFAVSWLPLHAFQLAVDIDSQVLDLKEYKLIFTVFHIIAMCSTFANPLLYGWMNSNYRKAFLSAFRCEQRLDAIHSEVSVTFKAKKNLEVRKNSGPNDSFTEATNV
In short: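 Commercial human Y2 receptor membranes (0.5 μg protein/well) were incubated with peptide for 2 h at room temperature in 50 mM HEPES, 5 mM MgCl₂, 1 mM CaCl₂, pH 7.4, with 0.2% ovalbumin. Bound radioligand was separated on PEI-soaked GF/C filters and counted by scintillation, and IC₅₀ came from nonlinear sigmoidal regression.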

[2] = target: T1, human neuropeptide Y2 receptor; experiment: cell-based or functional assay

Ki [1]: 1.69 nM
EC50 (hY2 cAMP, HTRF cAMP Gi assay) [2]: 0.375 nM
B1: Ref. 3 (peptide)
peptide: Isovaleryl-RPEK([AEEA-AEEA-γGlu-C18 diacid])PGEDASPEELQRYYVSLRAYYNWLTRQRY-NH2
SMILES: CC(C)CC(=O)N[C@@H](CCCNC(=N)N)C(=O)N1CCC[C@H]1C(=O)N[C@@H](CCC(=O)O)C(=O)N[C@@H](CCCCNC(=O)COCCOCCNC(=O)COCCOCCNC(=O)CC[C@H](NC(=O)CCCCCCCCCCCCCCCCC(=O)O)C(=O)O)C(=O)N1CCC[C@H]1C(=O)NCC(=O)N[C@@H](CCC(=O)O)C(=O)N[C@@H](CC(=O)O)C(=O)N[C@@H](C)C(=O)N[C@@H](CO)C(=O)N1CCC[C@H]1C(=O)N[C@@H](CCC(=O)O)C(=O)N[C@@H](CCC(=O)O)C(=O)N[C@@H](CC(C)C)C(=O)N[C@@H](CCC(N)=O)C(=O)N[C@@H](CCCNC(=N)N)C(=O)N[C@@H](Cc1ccc(O)cc1)C(=O)N[C@@H](Cc1ccc(O)cc1)C(=O)N[C@H](C(=O)N[C@@H](CO)C(=O)N[C@@H](CC(C)C)C(=O)N[C@@H](CCCNC(=N)N)C(=O)N[C@@H](C)C(=O)N[C@@H](Cc1ccc(O)cc1)C(=O)N[C@@H](Cc1ccc(O)cc1)C(=O)N[C@@H](CC(N)=O)C(=O)N[C@@H](Cc1c[nH]c2ccccc12)C(=O)N[C@@H](CC(C)C)C(=O)N[C@H](C(=O)N[C@@H](CCCNC(=N)N)C(=O)N[C@@H](CCC(N)=O)C(=O)N[C@@H](CCCNC(=N)N)C(=O)N[C@@H](Cc1ccc(O)cc1)C(N)=O)[C@@H](C)O)C(C)C
